Laboratory results reported in the RNAGym collection of RNA variant scans (doi:10.1073/pnas.2313332121).
Variants at the floor of the assay were thinned out.

B1: TPR 5TU (parent)
chain: GGAUCUUCUCGAUCUAACAAAAAAGACAAAUCUGCCACAAAGCUUGAGAGCAUCUUCGGAUGCAGAGGCGGCAGCCUUCGGUGGCGCGAUAGCGCCAACGUUCUCAACUAUGACACGCAAAACGCGUGCUCCGUUGAAUGGAGUUUAUCAUG

Variants of: B1
Assay: polymerase ribozyme fitness, log enrichment relative to wild type (log ratio); higher = more active; in vitro selection for triplet polymerase activity
Procedure, shortened: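 Streptavidin-bead capture of gel-excised extended constructs, followed by RT-PCR, closed a single triplicate in vitro selection round. That round began by annealing PCR-built, transcribed mutant libraries of each subunit of a heterodimeric triplet polymerase ribozyme with a biotinylated primer, the partner subunit and triplets, then incubating them frozen at −7 °C. After Illumina sequencing of inputs and outputs, genotypes needed ≥10 input reads and ≥1 read per output. Fitness is the base-2 logarithm of genotype enrichment over wild-type enrichment, using inverse-variance-weighted replicate averages.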
For GGAUCUUCUCGAUCUAACAAAAAAGACAAAUCUACCACAAAGCUUGAGAGCAUCUUGGGAUGCAGUGGCGGCAGCCUUCGGUGGCGCGAUAGCGCCAACGUUCUCAACUAUGACUCGCAAAACGCGUGCUCCGCUGAAUGGUGUUUAGCAUG [G34A C57G A66U A115U U134C A142U U148G], the “polymerase ribozyme fitness (log ratio)” value was -3.95. In the case of GGAUCUUCUCGAUCUAACAAAAAAGACAAAUCUCCCACAAAGCUUGAGAGCAUCUUCGAAUGCAGAGGCGGCAGCCUUCGGUGGCGCGAUAGCGCCAACGUUCUCAACUAUUACUCGCAAAACGUGUGCUCCGUUGAAUGGAGUUUAUCAUG [G34C G59A G112U A115U C125U], the “polymerase ribozyme fitness (log ratio)” value is reported as at most -4.2. In the case of GGAUCUUCUCGAUCUAACAAAAAAGACAAAUCUACCACAAAGCUUGAGAGCAUCUUCGGAUGCAGAGGCGGCAGCCUUCGGUGGCGAGAUAGCGCCAACGUUCUCAACUAUGACACGCAAAACGCGUGCUCCGUUGAAUGAAGUUUAUCAUG [G34A C87A G141A], the “polymerase ribozyme fitness (log ratio)” value is reported as at most -4.2. With GGAUCUUCUCGAUCUAACAAAAAAGACAAAUCUCCCACAAGGCUUGAGAGCAUAUUCGGAUGCAGAGGCGGCAGCCUUCGGUGGCGCGAUAGCGCCAACGUUCUCAACUAUGACACGCAAAACGCGUGCUCCGUCGAAUGGAGUGUAUCAUG [G34C A41G C54A U135C U145G] the “polymerase ribozyme fitness (log ratio)” value was at most -4.2. For GGAUCUUCUCGAUCUAACAAAAAAGACAAAUCUCCCACAAAGCUUGAGAGCAUCUUCGGAUGCAGAGGCGGCAGCCUUCGGUGGCGCGAUAGCGCCAACGUUCUCAACUAUGACACGCAAAACGCGUGCUCCGUUGAAUGGAGUUUAUCAUG [G34C], the “polymerase ribozyme fitness (log ratio)” value was -1.49. For GGAUCUUCUCGAUCUAACAAAAAAGACAAAUCUACCACAAAGCUUGAGAGCAUCUUCGGAUGCAGAGGCGGCAGCCUUUGGUGGCGCGAUAGCGCCAACGUUCUCACGUAUGACAGGCAAAACGCGUGCUCCGUUGAAUGGAGUUUAUCAUG [G34A C79U A107C C108G C116G], the “polymerase ribozyme fitness (log ratio)” value was at most -4.2. In the case of GGAUCUUCUCGAUCUAACAAAAAAGACAAAUCUACCACAAAGCUUGAGAGCAUCUUCGGAUGCAGAGGCGGCAGCCUUCGGUGGCGCGAUAGCGCCAACGUUCUCAACUAUGACACGCAAAACGCGUGCUCCGUUGAAUAGAGUUUAUCAUG [G34A G140A], the “polymerase ribozyme fitness (log ratio)” value is reported as -3.88. For GGAUCUUCUCGAUCUAACAAAAAAGACAAAUCUACCACAAAGCUUGAGAGCAUCUUCGGAUGCAGAUGCGGCAGCCCUCGGUGGCGCGCUAGCGCCAACGGUCUCAACUAUGACAGGCAAAACGCGUGCUCCGUUGAAUGGAGUUUAUCACG [G34A G67U U77C A89C U101G C116G U151C], the “polymerase ribozyme fitness (log ratio)” value was at most -4.2. In the case of GGAUCUUCUCGAUCUAACAAAAAAGACAAAUCUACCACAAAGCUUGAGAACAUCUUCGGAUGCAGAGUCGACAGCAUUCGGUGGAGCGAUAGCGCCAACGUUCUCAACUAUGACACGCAAAACGUGUGCUCCGUUGAAUGGAGUUUAUCAUG [G34A G50A G68U G71A C76A C85A C125U], the “polymerase ribozyme fitness (log ratio)” value is reported as at most -4.2. In the case of GGAUCUUCUCGAUCUAACAAAAAAGACAAAUCUACCACAAAGCUUGAGAGCAUCUUCGGAUGCAGAGGCGGCAGUCUUCGGUGGCGCGAUAGCGCCAACGUUCUCAACUAUGACACGCAAAACGCGUGCUCCGUUGAAUGGAGUUUAUCAUG [G34A C75U], the “polymerase ribozyme fitness (log ratio)” value is reported as -3.68. For GGAUCUUCUCGAUCUAACAAAAAAGACAAAUCUCCCACAAAGCUUGAGAGCAUCUUCGGAUGCAGAGGCGGCAGCCUCCGGUGGCGCGAUGGCGCCAACGUUCUCAACUAUGACACGCAAAACGCGUGCUCCGUUGAAUGGAGUUAAUCAUG [G34C U78C A91G U146A], the “polymerase ribozyme fitness (log ratio)” value was at most -4.2. In the case of GGAUCUUCUCGAUCUAACAAAAAAGACAAAUCUACCACAAAGCUUGAGAGCAUCUUCGGAUGCAGAGGCGGCAUCCUUCGGUGGCGCGAUAGCACCAACGUUCUCAACUAUGACAGGCAAAACGCGUGCUCCGUUGAAUGGAGUUUAUCAUG [G34A G74U G94A C116G], the “polymerase ribozyme fitness (log ratio)” value is reported as at most -4.2. For GGAUCUUCUCGAUCUAACAAAAAAGACAAAUCUACCACAAAGCUUGAGAGCAUCAUCGGAUGCAGAGGAGGCAGCUUUCCGUGGCGGGCUAGCGCCAACGUUCUCACCUAUGACAUGCAAAACGCGUGCUCCGUUGAAUGGAGUUUAUCAUG [G34A U55A C69A C76U G80C C87G A89C A107C C116U], the “polymerase ribozyme fitness (log ratio)” value was at most -4.2. In the case of GGAUCUUCUCGAUCUAACAAAAAAGACAAAUCUCCCACAAAGCUUGAGAGCAUCGUCGGAUGCAAAGGCGGCAGCCUUCGGUGGCGCGAUAGCGCCAACGUUCUCAACUAUGACACGCAAAACGCGUGCUCCGUUGAAUGGAGUUUAUCAUG [G34C U55G G65A], the “polymerase ribozyme fitness (log ratio)” value is reported as at most -4.2. In the case of GGAUCUUCUCGAUCUAACAAAAAAGACAAAUCUACCACAAAGCUUGAGAGCAUCUUCGGAUGCAGAGGCGGCAGCCUUCGGUGGCGCGAUAGCGCCAACGUUCUCAACUACGCCACGCAAAACUCGUGCUCCGUUGAAUGGAGUUUAUCAUU [G34A U111C A113C G124U G152U], the “polymerase ribozyme fitness (log ratio)” value is reported as at most -4.2. With GGAUCUUCUCGAUCUAACAAAAAAGACAAAUCUACCACAAAGCUUGAGAGCAUCUUCGGAUGCAGAGGAGGCAGCCUUCGGUGGCGCGAUAGCGCCAACGUUCUCGACUAUGACACGCAAAACGCGUGCUCCGUUGAAUGGAGUUUCUCAUG [G34A C69A A106G A147C] the “polymerase ribozyme fitness (log ratio)” value was -3.75. In the case of GGAUCUUCUCGAUCUAACAAAAAAGACAAAUCUACCACAAAGCUUGAGAGCAUCUACGGAUGCAGAGGCGGCAGCCUUCGGUGGCGCGAUACCGCCAACGUUCUCAACUAUGACACGCAAAACGCGUGCUCCGUUGAAUGGAGUUUAUCAUG [G34A U56A G92C], the “polymerase ribozyme fitness (log ratio)” value is reported as -1.65. With GGAUCUUCUCGAUCUAACAAAAAAGACAAAUCUACCACAAAGCUUGAGAGCAUCUUCGGAUGCAGAGGCGGCAGCCUUCGGUGGUGCGAUAGCGCCAACGGUCUCAACUAUGACACGCAAAACGCGUGCUCCGUUGAAUGGAGUUUAUCAUG [G34A C85U U101G] the “polymerase ribozyme fitness (log ratio)” value was -3.5. With GGAUCUUCUCGAUCUAACAAAAAAGACAAAUCUACCACAAAGCUUGAGAGCAUCUUCGGAUGCAGAGGCGGCAGCCUUCGGUGGCGUGUUAGCGCCAACAUUGUCAUCUAUGACACGCAAAACCCGUGCUCCGUGGAAUACAGUUUAUCAUG [G34A C87U A89U G100A C103G A107U G124C U135G G140A G141C] the “polymerase ribozyme fitness (log ratio)” value was at most -4.2.
